In PMC13683342, “Integrative structure of norovirus NS3 suggests a role in RNA transport”:

Target: T1, hex-ΔN61-NS3 (cc-hex fused NS3) (Human norovirus GI, UniProt Q83883 460-761)
T1 sequence: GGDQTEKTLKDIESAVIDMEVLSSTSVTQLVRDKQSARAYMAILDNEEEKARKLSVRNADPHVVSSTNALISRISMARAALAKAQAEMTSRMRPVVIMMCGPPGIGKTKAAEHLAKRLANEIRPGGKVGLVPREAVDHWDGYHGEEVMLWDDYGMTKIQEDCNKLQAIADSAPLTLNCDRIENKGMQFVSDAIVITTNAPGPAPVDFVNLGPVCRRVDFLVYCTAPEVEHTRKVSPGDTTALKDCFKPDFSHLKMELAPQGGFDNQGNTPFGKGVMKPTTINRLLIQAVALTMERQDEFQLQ
Assay: EMSA; 20 µM protein, 0.2 nM RNA, 5 mM Mg2+; EMSA: 25 mM HEPES pH 8.0, 30 mM NaCl, 5 mM MgCl2, 2 mM DTT, RNasin, 5% glycerol, 37 °C 1 h, 6% native PAGE; tweezers buffer not in material
Settings: protein: recombinant; tags: N-terminal 32-residue cc-hex replaces residues 1-61; chain copies: 6; label: 5' HEX; single strand, 42 nt

B1: RNA1 (ssRNA)
RNA: CAUUAUCGGAUAGUGGAACCUAGCUUCGACUAUCGGAUAAUC
- binding result: binds
